Ends that are not written are not given here.

The target in this test is 125I-labelled MMP-9 C domain (UniProt P14780). Nature of the test: phage-binding assay, 125I-labelled against unlabelled MMP-9 C domain.
Sequence of 125I-labelled MMP-9 C domain (P14780 513-707 limits assumed, form in doubt): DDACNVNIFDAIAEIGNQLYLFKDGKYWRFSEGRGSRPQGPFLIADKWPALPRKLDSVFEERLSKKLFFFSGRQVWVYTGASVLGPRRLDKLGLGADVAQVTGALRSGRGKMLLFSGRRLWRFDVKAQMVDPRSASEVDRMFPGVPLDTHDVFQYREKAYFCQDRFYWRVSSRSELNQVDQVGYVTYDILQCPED

B1: CRV phage (… displayed on phage) (peptide)
peptide: CRVYGPYLLC
modifications: cysteine pairing not given here; also: displayed on phage as coat protein fusion
In turn, B1 came in with a % of CRV peptide-binding activity retained after 125I-labelling of 40%.

The record behind these values is US20070207967A1, “Peptide Inhibitors of Matrix Metalloproteinase Activity” (CTT CANCER TARGETING TECHNOLOGIES OY, priority 2004, published 2007).
